Laboratory results reported in patent US20230277628A1, “METHODS FOR PROMOTING ANTI-TUMOR IMMUNE RESPONSE IN A SUBJECT IN NEED THEREOF USING ENCAPSULATED INTERLEUKIN 12” (Spectrum Pharmaceuticals, Inc., priority 2022, published 2023).

B1: rmIL-12: mouse recombinant IL-12, unencapsulated control; 1 µg equivalent to mPCX12 1 mg (protein, UniProt P43431 23-215; P43432 23-335, looked up)
Interleukin-12 subunit alpha: RVIPVSGPARCLSQSRNLLKTTDDMVKTAREKLKHYSCTAEDIDHEDITRDQTSTLKTCLPLELHKNESCLATRETSSTTRGSCLPPQKTSLMMTLCLGSIYEDLKMYQTEFQAINAALQNHNHQQIILDKGMLVAIDELMQSLNHNGETLRQKPPVGEADPYRVKMKLCILLHAFSTRVVTINRVMGYLSSA
Interleukin-12 subunit beta: MWELEKDVYVVEVDWTPDAPGETVNLTCDTPEEDDITWTSDQRHGVIGSGKTLTITVKEFLDAGQYTCHKGGETLSHSHLLLHKKENGIWSTEILKNFKNKTFLKCEAPNYSGRFTCSWLVQRNMDLKFNIKSSSSSPDSRAVTCGMASLSAEKVTLDQRDYEKYSVSCQEDVTCPTAEETLPIELALEARQQNKYENYSTSFFIRDIIKPDPPKNLQMKPLKNSQVEVSWEYPDSWSTPHSYFSLKFFVRIQRKKEKMKETEEGCNQKGAFLVEKTSTEVQCKGGNVCVQAQDRYYNSSCSKWACVPCRVRS

Legend:
GL-261 glioma cells [1] = assay: Survival in the GL-261 orthotopic murine glioma model; type: in vivo; conditions: for # censored mice: n=22, Day 71
Experimental: (§1) In an orthotopic murine glioma model, C57B6 mice were inoculated with 3 × 10^5 GL-261 glioma cells in the frontal lobe via intracranial injection with drug treatment on Day 5. Mice were randomly assigned (n=22/group) to receive a single intratumoral dose of mPCX12 at 0.5, 0.75, and 1 mg, or mrIL-12 1 µg (equivalent to mPCX12 1 mg) or empty shells or vehicle. In addition, lomustine (6 mg/kg, QDx5 i.p.) was also assessed. […] At 1 mg mPCX12, tumor IL-12 and IFNy levels were 2069±631 and 646±8 pg/mg respectively on Day 3. […] At Day 90, 41%, 45%, and 55% of the animals that received doses of 0.5, 0.75 or 1 mg mPCX12, respectively, were alive with median survival >90 days (last day of study).
In a second study, GL-261 inoculated mice (n=22 per group) received a single dose of mPCX12 at 0.5, 0.75, and 1 mg. Control treatment groups were, mrIL-12, 0.5 and 1 µg (equivalent to mPCX12 0.5 and 1 mg) or empty shells (1 mg) or vehicle control intratumoral. In addition, lomustine (6 mg/kg, QDx5 i.p.) was also assessed. Day 71 was the last day of the study. Animals were euthanized when they became moribund.
PCX12 (1 mg) >50% of mice survived to the end of the study (Day 71) and were tumor-free.

GL-261 glioma cells [2] = test system: GL-261 glioma cells; set-up: species or system C57B6 mice; conditions: mouse, in vivo
Experimental: as §1
In the first study, six days post GL-261 inoculation, a single dose of mPCX12 at 0.5, 0.75, and 1 mg was administered to 4 animals per timepoint (TP). Control treatment groups were, mrIL-12 1 µg (equivalent to mPCX12 1 mg) or empty shells. In addition, lomustine (6 mg/kg, QDx5 i.p.) was also assessed. At 3- and 7-days post drug administration, animals were euthanized, serum and tumor IL-12 and IFN-γ levels were determined via ELISA.
Low levels of IL-12 and IFN-γ observed in the systemic circulation of mPCX12 and mrIL-12 groups. FIGS. 1A-D: All values expressed as Mean +/- SEM; n=4 per timepoint; ND: Not Detected.

Row | Molecule | % alive at 71 Days Post Treatment (GL-261 glioma cells [1]; Lomustine 6 mg/kg QDx5 i.p.) [%] | # censored mice (GL-261 glioma cells [1]; Lomustine 6 mg/kg QDx5 i.p.) | Median survival (GL-261 glioma cells [1]; Lomustine 6 mg/kg QDx5 i.p., study end Day 71) [days] | Median survival (GL-261 glioma cells [1]; lomustine 6 mg/kg QDx5 i.p., text b126 (last day of study Day 90)) [days] | IL-12 and IFNγ in the systemic circulation (GL-261 glioma cells [2]) | tumor IL-12 persistence by Day 7 (GL-261 glioma cells [2]) | Median survival (GL-261 glioma cells [1]; mrIL-12 1 µg intratumoral, text b126 (last day of study Day 90)) [days] | % alive at 71 Days Post Treatment (GL-261 glioma cells [1]; rmIL-12 0.5 µg) [%] | Median survival (GL-261 glioma cells [1]; rmIL-12 0.5 µg intratumoral, study end Day 71) [days] | # censored mice (GL-261 glioma cells [1]; rmIL-12 0.5 µg) | % alive at 71 Days Post Treatment (GL-261 glioma cells [1]; rmIL-12 1 µg) [%] | Median survival (GL-261 glioma cells [1]; rmIL-12 1 µg intratumoral, study end Day 71) [days] | # censored mice (GL-261 glioma cells [1]; rmIL-12 1 µg)
1 | O=NN(CCCl)C(=O)NC1CCCCC1 [Lomustine, lomustine, reference compound] | 18 | 4 | 38 | 20 | – | – | – | – | – | – | – | – | –
2 | B1 | – | – | – | – | Low levels | returned to baseline | 37 | 45 | 38 | 10 | 41 | 37 | 9
